Data from US20100081638A1 (KOREA RESEARCH INSTITUTE OF BIOSCIENCE AND BIOTECHNOLOGY, published 2010).

Biological target: T1, focal adhesion kinase (FAK) (UniProt Q05397 2-1052)
T1 construct: Endogenous protein in lysates of SNU449 cell lines
Assay: physical association in SNU449 cell lysates with or without tiarellic acid (FIG. 10; method not described)

T1 sequence (Q05397 2-1052 limits assumed): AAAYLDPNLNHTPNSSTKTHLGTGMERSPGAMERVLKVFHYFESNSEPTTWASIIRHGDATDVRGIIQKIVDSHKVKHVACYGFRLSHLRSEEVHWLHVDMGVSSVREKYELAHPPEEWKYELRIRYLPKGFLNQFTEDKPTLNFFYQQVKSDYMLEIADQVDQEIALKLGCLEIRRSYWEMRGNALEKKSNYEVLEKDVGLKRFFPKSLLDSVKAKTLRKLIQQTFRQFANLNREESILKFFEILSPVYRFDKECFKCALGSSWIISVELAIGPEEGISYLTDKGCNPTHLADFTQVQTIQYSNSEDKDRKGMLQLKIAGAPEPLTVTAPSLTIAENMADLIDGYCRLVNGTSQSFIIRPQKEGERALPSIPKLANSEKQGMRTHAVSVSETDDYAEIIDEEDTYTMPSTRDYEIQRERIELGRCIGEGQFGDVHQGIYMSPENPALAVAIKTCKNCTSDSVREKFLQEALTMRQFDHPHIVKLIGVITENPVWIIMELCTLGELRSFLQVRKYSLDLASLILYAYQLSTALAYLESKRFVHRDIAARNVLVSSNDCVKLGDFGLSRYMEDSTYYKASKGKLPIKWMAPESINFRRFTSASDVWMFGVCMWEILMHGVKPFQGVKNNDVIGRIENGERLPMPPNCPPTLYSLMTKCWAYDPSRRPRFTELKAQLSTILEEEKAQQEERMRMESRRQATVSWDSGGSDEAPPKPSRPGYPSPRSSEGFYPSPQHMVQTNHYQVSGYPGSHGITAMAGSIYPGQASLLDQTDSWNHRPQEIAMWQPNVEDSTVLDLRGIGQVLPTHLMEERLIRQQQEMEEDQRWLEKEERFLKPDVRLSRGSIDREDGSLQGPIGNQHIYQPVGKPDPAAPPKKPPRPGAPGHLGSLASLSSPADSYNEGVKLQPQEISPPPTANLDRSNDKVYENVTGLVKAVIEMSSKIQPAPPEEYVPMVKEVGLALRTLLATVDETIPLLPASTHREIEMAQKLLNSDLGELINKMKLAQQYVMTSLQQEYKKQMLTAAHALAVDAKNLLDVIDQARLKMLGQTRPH

B1: p130Cas (other, UniProt P56945 1-870, looked up)
chain: MNHLNVLAKALYDNVAESPDELSFRKGDIMTVLEQDTQGLDGWWLCSLHGRQGIVPGNRLKILVGMYDKKPAGPGPGPPATPAQPQPGLHAPAPPASQYTPMLPNTYQPQPDSVYLVPTPSKAQQGLYQVPGPSPQFQSPPAKQTSTFSKQTPHHPFPSPATDLYQVPPGPGGPAQDIYQVPPSAGMGHDIYQVPPSMDTRSWEGTKPPAKVVVPTRVGQGYVYEAAQPEQDEYDIPRHLLAPGPQDIYDVPPVRGLLPSQYGQEVYDTPPMAVKGPNGRDPLLEVYDVPPSVEKGLPPSNHHAVYDVPPSVSKDVPDGPLLREETYDVPPAFAKAKPFDPARTPLVLAAPPPDSPPAEDVYDVPPPAPDLYDVPPGLRRPGPGTLYDVPRERVLPPEVADGGVVDSGVYAVPPPAEREAPAEGKRLSASSTGSTRSSQSASSLEVAGPGREPLELEVAVEALARLQQGVSATVAHLLDLAGSAGATGSWRSPSEPQEPLVQDLQAAVAAVQSAVHELLEFARSAVGNAAHTSDRALHAKLSRQLQKMEDVHQTLVAHGQALDAGRGGSGATLEDLDRLVACSRAVPEDAKQLASFLHGNASLLFRRTKATAPGPEGGGTLHPNPTDKTSSIQSRPLPSPPKFTSQDSPDGQYENSEGGWMEDYDYVHLQGKEEFEKTQKELLEKGSITRQGKSQLELQQLKQFERLEQEVSRPIDHDLANWTPAQPLAPGRTGGLGPSDRQLLLFYLEQCEANLTTLTNAVDAFFTAVATNQPPKIFVAHSKFVILSAHKLVFIGDTLSRQAKAADVRSQVTHYSNLLCDLLRGIVATTKAAALQYPSPSAAQDMVERVKELGHSTQQFRRVLGQLAAA
notes: Endogenous protein in lysates of SNU449 cell lines
Q: Does B1 bind?
A: binds
